Consider 32 molecules from publication PMC12636033, “Chemical Engineering of Transcription Factors Uncovered Cell-Permeable μMax Modulators”.

To fix the notation:
B1: dBr_Jan07_04601 (dsDNA)
DNA 1: GGTGTACGCTAAGGATGCTACTACGACCTAACACGTGTCTGTGTTCCGTTGTCCGTGCTG
DNA 2: CAGCACGGACAACGGAACACAGACACGTGTTAGGTCGTAGTAGCATCCTTAGCGTACACC
B2: dBr_Jan07_27761 (dsDNA)
DNA 1: ATATCGACCTTTTATTGAAAACCGGGAGTCTCACGTGTCTGTGTTCCGTTGTCCGTGCTG
DNA 2: CAGCACGGACAACGGAACACAGACACGTGAGACTCCCGGTTTTCAATAAAAGGTCGATAT
B3: dBr_Jan07_17404 (dsDNA)
DNA 1: TTGCGTGTTGTGTCTAATATCCAAACTACACCACGTGTCTGTGTTCCGTTGTCCGTGCTG
DNA 2: CAGCACGGACAACGGAACACAGACACGTGGTGTAGTTTGGATATTAGACACAACACGCAA
B4: dBr_Jan07_37076 (dsDNA)
DNA 1: AAAACGTTCCGAGCCATTTAGAAGGGGTCACGTGATGTCTGTGTTCCGTTGTCCGTGCTG
DNA 2: CAGCACGGACAACGGAACACAGACATCACGTGACCCCTTCTAAATGGCTCGGAACGTTTT
B5: dBr_Jan07_27753 (dsDNA)
DNA 1: TTTTCATACGAACTTCGAGCTCCCCACGTGGTTCTTGTCTGTGTTCCGTTGTCCGTGCTG
DNA 2: CAGCACGGACAACGGAACACAGACAAGAACCACGTGGGGAGCTCGAAGTTCGTATGAAAA
B6: dBr_Jan07_31500 (dsDNA)
DNA 1: CTCCGTGGGTTCGTGAGTTCATGGCGAAAAGCACGTGTCTGTGTTCCGTTGTCCGTGCTG
DNA 2: CAGCACGGACAACGGAACACAGACACGTGCTTTTCGCCATGAACTCACGAACCCACGGAG
B7: dBr_Jan07_30456 (dsDNA)
DNA 1: GGCGTTGTCAGGAAGGATTGGCTGTCGTCAACACGTGTCTGTGTTCCGTTGTCCGTGCTG
DNA 2: CAGCACGGACAACGGAACACAGACACGTGTTGACGACAGCCAATCCTTCCTGACAACGCC
B8: dBr_Jan07_15488 (dsDNA)
DNA 1: TAGTAGTCGTTGCTAGCTGCAAGGAATGGCGCACGTGTCTGTGTTCCGTTGTCCGTGCTG
DNA 2: CAGCACGGACAACGGAACACAGACACGTGCGCCATTCCTTGCAGCTAGCAACGACTACTA
B9: dBr_Jan07_34030 (dsDNA)
DNA 1: GAACGAGGGACCGCTAGGATGCCACGTGATTAAAGTGTCTGTGTTCCGTTGTCCGTGCTG
DNA 2: CAGCACGGACAACGGAACACAGACACTTTAATCACGTGGCATCCTAGCGGTCCCTCGTTC
B10: dBr_Jan07_14484 (dsDNA)
DNA 1: CTGCAGTTCTACTGTATCCACGACATAGAGACACGTGTCTGTGTTCCGTTGTCCGTGCTG
DNA 2: CAGCACGGACAACGGAACACAGACACGTGTCTCTATGTCGTGGATACAGTAGAACTGCAG
B11: dBr_Jan07_34042 (dsDNA)
DNA 1: GCCGAAAGTCCCCCACGTGGTCAGTAAAAGAGAAGAGTCTGTGTTCCGTTGTCCGTGCTG
DNA 2: CAGCACGGACAACGGAACACAGACTCTTCTCTTTTACTGACCACGTGGGGGACTTTCGGC
B12: dBr_Jan07_33198 (dsDNA)
DNA 1: GCATAAACAAGGCCGCTGTAGCGGTTCGGTGCACGTGTCTGTGTTCCGTTGTCCGTGCTG
DNA 2: CAGCACGGACAACGGAACACAGACACGTGCACCGAACCGCTACAGCGGCCTTGTTTATGC
B13: dBr_Jan07_01656 (dsDNA)
DNA 1: TCGATCACACACGTGCTTATTGTACCAAACACATACGTCTGTGTTCCGTTGTCCGTGCTG
DNA 2: CAGCACGGACAACGGAACACAGACGTATGTGTTTGGTACAATAAGCACGTGTGTGATCGA
B14: dBr_Jan07_01852 (dsDNA)
DNA 1: AGGAGTCTTGCCGCACGGTCCCCGTCTTATGCACGTGTCTGTGTTCCGTTGTCCGTGCTG
DNA 2: CAGCACGGACAACGGAACACAGACACGTGCATAAGACGGGGACCGTGCGGCAAGACTCCT
B15: dBr_Jan07_40162 (dsDNA)
DNA 1: CCTTGAACCATTAGCACGTGGATATATAAATCTTACGTCTGTGTTCCGTTGTCCGTGCTG
DNA 2: CAGCACGGACAACGGAACACAGACGTAAGATTTATATATCCACGTGCTAATGGTTCAAGG
B16: dBr_Jan07_05071 (dsDNA)
DNA 1: CGTGTAACCTTCAGGCACGTGGTTTAATCGTTATCCGTCTGTGTTCCGTTGTCCGTGCTG
DNA 2: CAGCACGGACAACGGAACACAGACGGATAACGATTAAACCACGTGCCTGAAGGTTACACG
B17: dBr_Jan07_15832 (dsDNA)
DNA 1: TGCTAGGTGCGGGGCGTGCCATTGTACCACGTGGCTGTCTGTGTTCCGTTGTCCGTGCTG
DNA 2: CAGCACGGACAACGGAACACAGACAGCCACGTGGTACAATGGCACGCCCCGCACCTAGCA
B18: dBr_Jan07_17844 (dsDNA)
DNA 1: AATGGACTCGTTTTTTTTGCGTTATTAGACCACGCGGTCTGTGTTCCGTTGTCCGTGCTG
DNA 2: CAGCACGGACAACGGAACACAGACCGCGTGGTCTAATAACGCAAAAAAAACGAGTCCATT
B19: dBr_Jan07_07015 (dsDNA)
DNA 1: CGATACTGTATCGCATGGACAGCACGTGCAATTAGGGTCTGTGTTCCGTTGTCCGTGCTG
DNA 2: CAGCACGGACAACGGAACACAGACCCTAATTGCACGTGCTGTCCATGCGATACAGTATCG
B20: dBr_Jan07_24740 (dsDNA)
DNA 1: ATAGAGCGTCAGAATAGTGACATACACGTGGTCCCCGTCTGTGTTCCGTTGTCCGTGCTG
DNA 2: CAGCACGGACAACGGAACACAGACGGGGACCACGTGTATGTCACTATTCTGACGCTCTAT
B21: dBr_Jan07_38389 (dsDNA)
DNA 1: CAAGCCTATCGCGGCCAATCGGTAAGCACGTGACTAGTCTGTGTTCCGTTGTCCGTGCTG
DNA 2: CAGCACGGACAACGGAACACAGACTAGTCACGTGCTTACCGATTGGCCGCGATAGGCTTG
B22: dBr_Jan07_06713 (dsDNA)
DNA 1: AGTAACGGGGTCGCTTGATGGGCTCTTCCGCGTGGAGTCTGTGTTCCGTTGTCCGTGCTG
DNA 2: CAGCACGGACAACGGAACACAGACTCCACGCGGAAGAGCCCATCAAGCGACCCCGTTACT
B23: dBr_Jan07_19348 (dsDNA)
DNA 1: ACCTCTGTAAGTCTGAGTCTGATAACCACGTGTCGGGTCTGTGTTCCGTTGTCCGTGCTG
DNA 2: CAGCACGGACAACGGAACACAGACCCGACACGTGGTTATCAGACTCAGACTTACAGAGGT
B24: dBr_Jan07_18911 (dsDNA)
DNA 1: ACAAACCCCGCACGTGCCTTCGCCCCCTCCTATGCGGTCTGTGTTCCGTTGTCCGTGCTG
DNA 2: CAGCACGGACAACGGAACACAGACCGCATAGGAGGGGGCGAAGGCACGTGCGGGGTTTGT
B25: dBr_Jan07_23034 (dsDNA)
DNA 1: TCCGTACGGTCTCGTTCCATAGCTTGCTACCATGTGGTCTGTGTTCCGTTGTCCGTGCTG
DNA 2: CAGCACGGACAACGGAACACAGACCACATGGTAGCAAGCTATGGAACGAGACCGTACGGA
B26: dBr_Jan07_31967 (dsDNA)
DNA 1: GTGTCACGTGTCGTTCATCCTTATTAACTAGGGTCTGTCTGTGTTCCGTTGTCCGTGCTG
DNA 2: CAGCACGGACAACGGAACACAGACAGACCCTAGTTAATAAGGATGAACGACACGTGACAC
B27: dBr_Jan07_20507 (dsDNA)
DNA 1: GTGCCCGATTGTCTACGGCACCACGTGTGTTACCAGGTCTGTGTTCCGTTGTCCGTGCTG
DNA 2: CAGCACGGACAACGGAACACAGACCTGGTAACACACGTGGTGCCGTAGACAATCGGGCAC
B28: dBr_Jan07_02206 (dsDNA)
DNA 1: GGCAGTCGGTCGTTCCAGATATTAGGATCTCCACGTGTCTGTGTTCCGTTGTCCGTGCTG
DNA 2: CAGCACGGACAACGGAACACAGACACGTGGAGATCCTAATATCTGGAACGACCGACTGCC
B29: dBr_Jan07_23401 (dsDNA)
DNA 1: TCTATGCTCGCGGATGCCCTTAAACTAGGCACGTGTGTCTGTGTTCCGTTGTCCGTGCTG
DNA 2: CAGCACGGACAACGGAACACAGACACACGTGCCTAGTTTAAGGGCATCCGCGAGCATAGA
B30: dBr_Jan07_17964 (dsDNA)
DNA 1: ACTTGAATGAGGGCCTTTGATCTGCTTTACTCACGTGTCTGTGTTCCGTTGTCCGTGCTG
DNA 2: CAGCACGGACAACGGAACACAGACACGTGAGTAAAGCAGATCAAAGGCCCTCATTCAAGT
B31: dBr_Jan07_15201 (dsDNA)
DNA 1: TTGCCTGGGATTAGATTCTACGCTCACGATGCACGTGTCTGTGTTCCGTTGTCCGTGCTG
DNA 2: CAGCACGGACAACGGAACACAGACACGTGCATCGTGAGCGTAGAATCTAATCCCAGGCAA
B32: dBr_Jan07_38976 (dsDNA)
DNA 1: CGACACAGAAAACAATTCCGACTTGCTTTCCGCGTGGTCTGTGTTCCGTTGTCCGTGCTG
DNA 2: CAGCACGGACAACGGAACACAGACCACGCGGAAAGCAAGTCGGAATTGTTTTCTGTGTCG

In the data set the target is WT Max (Homo sapiens, UniProt P61244-2 13-93, M65Nle, norleucine written as M; other non-natural residues written as X). Kind of data set: PBM; 50-200 nM protein; PBS, 2% milk, BSA, salmon testes DNA, 0.02% Triton X-100. The note with it: chain copies: 2; label: surface-attached array probe.
Chain of WT Max (P61244 other isoform, or with tags, fused parts or gaps M65Nle): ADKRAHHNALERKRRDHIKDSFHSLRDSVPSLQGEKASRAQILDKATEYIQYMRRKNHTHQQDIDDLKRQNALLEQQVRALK
Consider B1, for which the binding signal was 3.7 robust z of log adjusted intensity (ours), mean of two arrays. For B2 the value was 3.44 robust z of log adjusted intensity (ours), mean of two arrays.

On to B3, for which the binding signal is 4.24 robust z of log adjusted intensity (ours), mean of two arrays. For B4 the value was 3.31 robust z of log adjusted intensity (ours), mean of two arrays; for B5, 5.1 robust z of log adjusted intensity (ours), mean of two arrays; for B6, 4.51 robust z of log adjusted intensity (ours), mean of two arrays. For B7 the value was 3.62 robust z of log adjusted intensity (ours), mean of two arrays. As to B8, the binding signal was 3.81 robust z of log adjusted intensity (ours), mean of two arrays. For B9 the value was 3.45 robust z of log adjusted intensity (ours), mean of two arrays; for B10, 5.27 robust z of log adjusted intensity (ours), mean of two arrays; for B11, 4.32 robust z of log adjusted intensity (ours), mean of two arrays. For B12 the value was 3.33 robust z of log adjusted intensity (ours), mean of two arrays; for B13, 3.68 robust z of log adjusted intensity (ours), mean of two arrays. For B14 the value was 3.5 robust z of log adjusted intensity (ours), mean of two arrays; for B15, 3.32 robust z of log adjusted intensity (ours), mean of two arrays. With B16, the binding signal was 4.32 robust z of log adjusted intensity (ours), mean of two arrays. As to B17, the binding signal was 3.84 robust z of log adjusted intensity (ours), mean of two arrays. For B18 the value was 3.78 robust z of log adjusted intensity (ours), mean of two arrays; for B19, 3.94 robust z of log adjusted intensity (ours), mean of two arrays. On to B20, for which the binding signal is 3.51 robust z of log adjusted intensity (ours), mean of two arrays. For B21 the value was 3.67 robust z of log adjusted intensity (ours), mean of two arrays; for B22, 3.79 robust z of log adjusted intensity (ours), mean of two arrays; for B23, 5.01 robust z of log adjusted intensity (ours), mean of two arrays. As for B24, the binding signal was 3.79 robust z of log adjusted intensity (ours), mean of two arrays. For B25 the value was 3.64 robust z of log adjusted intensity (ours), mean of two arrays.

For B26, the binding signal was 3.79 robust z of log adjusted intensity (ours), mean of two arrays. For B27 the value was 4.13 robust z of log adjusted intensity (ours), mean of two arrays; for B28, 3.71 robust z of log adjusted intensity (ours), mean of two arrays; for B29, 3.69 robust z of log adjusted intensity (ours), mean of two arrays. Next, B30: 3.59 robust z of log adjusted intensity (ours), mean of two arrays; B31: 3.45 robust z of log adjusted intensity (ours), mean of two arrays; B32: 3.81 robust z of log adjusted intensity (ours), mean of two arrays.
